Test results taken from the Immune Epitope Database (IEDB).

Experiments:
HLA-B*58:01 [1] = assay: IEDB peptide-MHC binding, purified MHC/competitive/radioactivity; filed as Kd, often an IC50 or EC50 that approximates it; ≥ and ≤ were set here for values at or beyond the usual limits of such assays
HLA-A*01:01 = assay: IEDB peptide-MHC binding, purified MHC/direct/fluorescence; filed as Kd, often an IC50 or EC50 that approximates it; ≥ and ≤ were set here for values at or beyond the usual limits of such assays
HLA-A*02:01 [2] = assay: as above
HLA-A*03:01 = assay: as above
HLA-A*11:01 [3] = assay: as above; conditions: source organism: Marburg virus - Musoke, Kenya, 1980
HLA-A*26:01 [4] = assay: as above
HLA-A*26:02 [5] = assay: as above; conditions: source organism: Ravn virus - Ravn, Kenya, 1987
HLA-A*26:03 = assay: as above
HLA-A*31:01 [6] = assay: as above
HLA-A*68:02 [7] = assay: as above
HLA-A*69:01 = assay: as above
HLA-B*07:02 = assay: as above
HLA-B*08:01 = assay: as above
HLA-B*08:03 = assay: as above
HLA-B*15:01 [8] = assay: as above
HLA-B*15:17 [9] = assay: as above
HLA-B*18:01 [10] = assay: as above; conditions: source organism: Marburg virus - Musoke, Kenya, 1980
HLA-B*27:05 = assay: as above
HLA-B*40:01 = assay: as above; conditions: source organism: Marburg virus - Musoke, Kenya, 1980
HLA-B*46:01 = assay: as above
HLA-B*48:01 = assay: as above
HLA-B*57:01 [11] = assay: as above
HLA-B*58:01 [12] = assay: as above
HLA-B*08:02 = assay: as above
HLA-B*15:09 = assay: as above
HLA-B*39:01 = assay: as above
HLA-A*02:01 [13] = assay: IEDB peptide-MHC binding, purified MHC/competitive/fluorescence; filed as Kd, often an IC50 or EC50 that approximates it; ≥ and ≤ were set here for values at or beyond the usual limits of such assays; conditions: source organism: Orthomarburgvirus marburgense
HLA-A*02:06 = assay: as above; conditions: source organism: Orthomarburgvirus marburgense
HLA-A*11:01 [14] = assay: as above
HLA-A*26:01 [15] = assay: as above; conditions: source organism: Orthomarburgvirus marburgense
HLA-A*26:02 [16] = assay: as above
HLA-A*30:01 [17] = assay: as above; conditions: source organism: Orthomarburgvirus marburgense
HLA-B*57:01 [18] = assay: IEDB peptide-MHC binding, purified MHC/competitive/radioactivity; filed as Kd, often an IC50 or EC50 that approximates it; ≥ and ≤ were set here for values at or beyond the usual limits of such assays
HLA-A*24:03 = assay: IEDB peptide-MHC binding, purified MHC/direct/fluorescence; filed as Kd, often an IC50 or EC50 that approximates it; ≥ and ≤ were set here for values at or beyond the usual limits of such assays
HLA-A*30:01 [19] = assay: as above; conditions: source organism: Variola virus
HLA-C*14:02 = assay: as above; conditions: source organism: Variola major virus
HLA-C*15:02 = assay: as above; conditions: source organism: Variola major virus
HLA-A*31:01 [20] = assay: IEDB peptide-MHC binding, purified MHC/competitive/fluorescence; filed as Kd, often an IC50 or EC50 that approximates it; ≥ and ≤ were set here for values at or beyond the usual limits of such assays
HLA-A*68:02 [21] = assay: as above
HLA-B*15:01 [22] = assay: as above; conditions: source organism: Variola major virus
HLA-B*18:01 [23] = assay: as above
HLA-B*15:17 [24] = assay: as above; conditions: source organism: Influenza A virus H3N2
HLA-B*35:01 = assay: as above; conditions: source organism: Influenza A virus H3N2
HLA-B*57:01 [25] = assay: as above; conditions: source organism: Influenza A virus H3N2
[26] = source organism: Marburg virus - Musoke, Kenya, 1980
[27] = source organism: Ravn virus - Ravn, Kenya, 1987
[28] = source organism: Lake Victoria marburgvirus - Popp
[29] = source organism: Orthomarburgvirus marburgense
[30] = source organism: Dengue virus 3 Martinique/1243/1999
[31] = source organism: Dengue virus 4 Philippines/H241/1956
[32] = source organism: Buffalopox virus
[33] = source organism: Variola major virus
[34] = source organism: Influenza A virus (A/Swine/Italy/25823/94(H3N2))
[35] = source organism: Influenza A virus(A/swine/Shandong/fNY/2003(H9N2))
[36] = source organism: Influenza A virus H3N2

AAVLLLVTHY
Kd (HLA-B*58:01 [1]; source organism: Dengue virus 3 Singapore/8120/1995): 4.14 µM

CVFKFIVAK
Kd (HLA-A*01:01; [26]): ≥ 20 µM | Kd (HLA-A*02:01 [2]; [26]): ≥ 20 µM | Kd (HLA-A*03:01; [26]): 0.391 µM | Kd (HLA-A*11:01 [3]): 0.031 µM | Kd (HLA-A*26:01 [4]; [27]): ≥ 20 µM | Kd (HLA-A*26:02 [5]): ≥ 20 µM | Kd (HLA-A*26:03; [27]): ≥ 20 µM | Kd (HLA-A*31:01 [6]; [26]): 0.275 µM | Kd (HLA-A*68:02 [7]; [26]): ≥ 20 µM | Kd (HLA-A*69:01; [26]): ≥ 20 µM | Kd (HLA-B*07:02; [26]): ≥ 20 µM | Kd (HLA-B*08:01; [27]): ≥ 20 µM | Kd (HLA-B*08:03; [27]): ≥ 20 µM | Kd (HLA-B*15:01 [8]; [26]): ≥ 20 µM | Kd (HLA-B*15:17 [9]; [26]): ≥ 20 µM | Kd (HLA-B*18:01 [10]): ≥ 20 µM | Kd (HLA-B*27:05; [26]): ≥ 20 µM | Kd (HLA-B*40:01): ≥ 20 µM | Kd (HLA-B*46:01; [26]): ≥ 20 µM | Kd (HLA-B*48:01; [26]): ≥ 20 µM | Kd (HLA-B*57:01 [11]; [26]): ≥ 20 µM | Kd (HLA-B*58:01 [12]; [26]): ≥ 20 µM

FLMRNAIQY
Kd (HLA-A*01:01; [28]): 0.0372 µM | Kd (HLA-A*26:03; [29]): ≥ 20 µM | Kd (HLA-A*31:01 [6]; [28]): ≥ 20 µM | Kd (HLA-A*68:02 [7]; [28]): ≥ 20 µM | Kd (HLA-A*69:01; [28]): ≥ 20 µM | Kd (HLA-B*07:02; [28]): ≥ 20 µM | Kd (HLA-B*08:02; [29]): ≥ 20 µM | Kd (HLA-B*08:03; [29]): ≥ 20 µM | Kd (HLA-B*15:01 [8]; [28]): 0.188 µM | Kd (HLA-B*15:09; [29]): ≥ 20 µM | Kd (HLA-B*15:17 [9]; [28]): 0.157 µM | Kd (HLA-B*27:05; [28]): ≥ 20 µM | Kd (HLA-B*39:01; [29]): ≥ 20 µM | Kd (HLA-B*46:01; [28]): 4.14 µM | Kd (HLA-B*48:01; [28]): ≥ 20 µM | Kd (HLA-B*57:01 [11]; [28]): ≥ 20 µM | Kd (HLA-B*58:01 [12]; [28]): ≥ 20 µM | Kd (HLA-A*02:01 [13]): 0.254 µM | Kd (HLA-A*02:06): 2.27 µM | Kd (HLA-A*11:01 [14]; [29]): 3.87 µM | Kd (HLA-A*26:01 [15]): 2.58 µM | Kd (HLA-A*26:02 [16]; [29]): 1.92 µM | Kd (HLA-A*30:01 [17]): 2.77 µM

KAAVEDEDF
Kd (HLA-B*58:01 [1]; [30]): 0.0766 µM

LGKAYAQMW
Kd (HLA-B*57:01 [18]; [30]): 0.207 µM

RTSCLQKQSH
Kd (HLA-B*57:01 [18]; [31]): 0.61 µM

RYPGVMYAF
Kd (HLA-A*01:01; [32]): ≥ 20 µM | Kd (HLA-A*02:01 [2]; [32]): ≥ 20 µM | Kd (HLA-A*24:03; [32]): 0.002 µM | Kd (HLA-A*26:01 [4]; source organism: Variola virus): ≥ 20 µM | Kd (HLA-A*26:03; source organism: Variola virus): ≥ 20 µM | Kd (HLA-A*30:01 [19]): 4 µM | Kd (HLA-A*69:01; [32]): ≥ 20 µM | Kd (HLA-B*07:02; [32]): ≥ 20 µM | Kd (HLA-B*08:03; source organism: Variola virus): ≥ 20 µM | Kd (HLA-B*15:09; source organism: Variola virus): ≥ 20 µM | Kd (HLA-B*39:01; source organism: Variola virus): ≥ 20 µM | Kd (HLA-B*57:01 [11]; [32]): ≥ 20 µM | Kd (HLA-B*58:01 [12]; [32]): ≥ 20 µM | Kd (HLA-C*14:02): 0.016 µM | Kd (HLA-C*15:02): ≥ 20 µM | Kd (HLA-A*11:01 [14]; [33]): 4.3 µM | Kd (HLA-A*26:02 [16]; [33]): 4.76 µM | Kd (HLA-A*31:01 [20]; [33]): 0.122 µM | Kd (HLA-A*68:02 [21]; [33]): ≥ 20 µM | Kd (HLA-B*15:01 [22]): 3.62 µM | Kd (HLA-B*18:01 [23]; [33]): 0.989 µM

SFSFGGFTF
Kd (HLA-A*01:01; [34]): ≥ 20 µM | Kd (HLA-A*02:01 [2]; [34]): ≥ 20 µM | Kd (HLA-A*03:01; [34]): ≥ 20 µM | Kd (HLA-A*24:03; [34]): ≤ 0.001 µM | Kd (HLA-B*07:02; [34]): ≥ 20 µM | Kd (HLA-B*08:01; [35]): ≥ 20 µM | Kd (HLA-B*08:02; [35]): ≥ 20 µM | Kd (HLA-B*08:03; [35]): ≥ 20 µM | Kd (HLA-B*15:01 [8]; [34]): 0.0375 µM | Kd (HLA-B*15:09; [35]): ≥ 20 µM | Kd (HLA-B*27:05; [34]): ≥ 20 µM | Kd (HLA-B*58:01 [12]; [34]): 0.0625 µM | Kd (HLA-A*11:01 [14]; [36]): ≥ 20 µM | Kd (HLA-A*26:02 [16]; [36]): 1.84 µM | Kd (HLA-A*31:01 [20]; [36]): ≥ 20 µM | Kd (HLA-A*68:02 [21]; [36]): 2.44 µM | Kd (HLA-B*15:17 [24]): 0.04 µM | Kd (HLA-B*18:01 [23]; [36]): 0.2 µM | Kd (HLA-B*35:01): 0.285 µM | Kd (HLA-B*57:01 [25]): 2.36 µM

TTRLENIMW
Kd (HLA-B*57:01 [18]; [31]): 0.0133 µM
